The source of these data is paper doi:10.1101/637298.

Series [1] concerns the target T1, hZFY full-length (13-finger construct) (human, UniProt P08048 408-768).
T1 sequence: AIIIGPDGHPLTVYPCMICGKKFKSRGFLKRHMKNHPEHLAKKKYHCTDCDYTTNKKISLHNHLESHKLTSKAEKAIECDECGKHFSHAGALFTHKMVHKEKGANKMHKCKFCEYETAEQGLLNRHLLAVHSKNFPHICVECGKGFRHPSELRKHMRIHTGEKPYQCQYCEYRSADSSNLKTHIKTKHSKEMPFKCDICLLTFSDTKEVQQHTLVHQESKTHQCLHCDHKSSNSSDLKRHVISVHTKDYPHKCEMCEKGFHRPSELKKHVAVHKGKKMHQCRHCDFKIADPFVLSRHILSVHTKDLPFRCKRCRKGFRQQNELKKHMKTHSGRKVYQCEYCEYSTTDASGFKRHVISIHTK
Nature of the series: fluorescence anisotropy dissociation.

Series [2] has as its target T1, hZFY full-length (13-finger construct). Nature of the series: fluorescence anisotropy dissociation. The source holds these as a separate data set.

B1: S.S.S. (long) FAM probe (dsDNA)
DNA 1: ACCTGGCCTAGTCGTTTTTGAGATCTTCATCAATTGCCGCATC
DNA 2: GATGCGGCAATTGATGAAGATCTCAAAAACGACTAGGCCAGGT
In the case of B1, the binding result in series [1] is reported as “binds”.

B2: S.S.N. FAM probe (dsDNA)
DNA 1: ACCTGGCCTAGTCGTTGCCCAGAT
DNA 2: ATCTGGGCAACGACTAGGCCAGGT
Turning to B2, the binding signal in series [2] was ~2 fold shorter lifetime than SSS.
